# From patent US20030180295A1, “Angiocidin: a Cys-Ser-Val-Thr-Cys-Gly specific tumor cell adhesion receptor” (Philadelphia Health and Education Corporation, priority 1999, published 2003)
# No end group written: not given here. *: point of attachment. Acm = CC(=O)NC*
# Columns and labels:
# receptor-TSP-1 complex [1] = molecular target: T1, receptor-TSP-1 complex (Homo sapiens, UniProt P55036, INS254GER); test: Affinity Sensor System: peptide competition of receptor binding to immobilized TSP-1; conditions: 10 fold molar excess of peptide
# T1 construct: Full length cDNA cloned in the PBK-CMV vector was used as a template; 6xHis (pTrcHisA leader) (N); made in house; host or cells: bacteria (pTrcHisA vector)
# T1 sequence (P55036 with tags, fused parts or gaps INS254GER): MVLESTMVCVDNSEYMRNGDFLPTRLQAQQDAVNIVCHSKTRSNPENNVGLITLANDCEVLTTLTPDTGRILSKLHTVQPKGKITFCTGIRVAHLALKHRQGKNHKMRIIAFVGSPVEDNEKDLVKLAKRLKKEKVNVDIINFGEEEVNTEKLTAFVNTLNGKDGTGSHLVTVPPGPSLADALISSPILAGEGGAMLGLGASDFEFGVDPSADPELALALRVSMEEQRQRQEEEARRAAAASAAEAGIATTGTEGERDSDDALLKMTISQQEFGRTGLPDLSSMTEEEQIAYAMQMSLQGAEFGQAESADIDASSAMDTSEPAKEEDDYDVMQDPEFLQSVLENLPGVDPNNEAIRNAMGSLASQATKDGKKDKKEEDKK
# Procedure: (§1) Binding of undenatured (in the ligand blot protocol above, the receptor is denatured by SDS) recombinant receptor to TSP-1 was evaluated using the Affinity Sensor System, Cambridge, UK. This is an optical binding method that uses a cuvette to which either ligand or receptor is covalently coupled. A laser beam is used to detect bound proteins to the protein-derivatized cuvette surface. This method is highly sensitive and measures both the association and dissociation rate constants for ligand receptor interactions. The instrument assumes that one molecule of receptor binds one molecule of TSP-1 and calculates the dissociation constant (KD) according to the following relationships:
# (§2) About 1 μg of TSP-1 was coupled to the cuvette through its amino groups to COOH groups on the cuvette surface. Unreacted groups on the cuvette surface were then blocked with ethanolamine and albumin. […] A dissociation constant of […] was calculated from a plot of the pseudo first order rate constant for association versus the concentration of the receptor, as shown in FIG. 7. Instrument response vs time readings shown in FIG. 8, where the instrument response is proportional to the concentration of receptor-TSP-1 complex, were used to plot the data points on FIG. 7.
# (§3) […] The peptides used were Val-Cys-His-Ser-Lys-Thr-Arg (SEQ ID NO: 8), Val-Cys(Acm)-His-Ser-Lys-Thr-Arg (SEQ ID NO: 9), and Pro-His-Ser-Arg-Asn (SEQ ID NO: 10). The first two peptides are derived from the binding portion of the receptor, where it interacts with the Cys-Ser-Val-Thr-Cys-Gly (SEQ ID NO: 1) portion of the TSP-1 protein. The third peptide is a control.
# receptor = molecular target: T2, receptor (Homo sapiens, UniProt P55036, INS254GER); test: Affinity Sensor System: receptor binding to TSP-1 and Cys(Acm)-Ser-Val-Thr-Cys(Acm)-Gly; conditions: Example 8, FIG. 11
# T2 construct: Full length cDNA cloned in the PBK-CMV vector was used as a template; 6xHis (pTrcHisA leader) (N); made in house; host or cells: bacteria (pTrcHisA vector)
# T2 sequence (P55036 with tags, fused parts or gaps INS254GER): T1 sequence (P55036 with tags, fused parts or gaps INS254GER)
# Procedure: as §1
# The methodology set forth in Example 6 was followed except that TSP-1 and Cys(Acm)-Ser-Val-Thr-Cys(Acm)-Gly (SEQ ID NO: 6) were immobilized on cuvettes and the receptor was added to the cuvettes. The Acm version of the peptide was used to increase its stability in the experiment.
# [2] = molecular target: T3, biotin-angiocidin complex binding to TSP-1 (Homo sapiens, UniProt P55036, INS254GER); test: Biotin-avidin receptor binding assay: competition; conditions: Example 25, peptide 1 mg/ml, FIG. 32
# T3 sequence (P55036 with tags, fused parts or gaps INS254GER): T1 sequence (P55036 with tags, fused parts or gaps INS254GER)
# Procedure: In the following experiments, TSP-1 was covalently bound to a substrate, biotinylated angiocidin was added to the plate, and avidin-peroxidase was added to measure how much biotinylated angiocidin was attached to the TSP-1. The avidin-peroxidase was measured using a spectrophotometer at an absorbance of 450 nm.
# Free angiocidin was added to the system to compete with the biotinylated angiocid in. […] Immobilized BSA was used as a negative control.
# The TSP-1 peptide Cys-Ser-Val-Thr-Cys-Gly (SEQ ID NO: 1) was added to the system to compete with the TSP-1 on the plate for binding with the biotinylated angiocidin. The scrambled peptide Val-Cys-Thr-Gly-Ser-Cys (SEQ ID NO: 15) was used as a negative control and had no effect.
# The avidin-biotin system discussed above was used to evaluate the competitive effect of various peptides on the binding of TSP-1 and angiocidin. […] The scrambled peptide Val-Cys-Thr-Gly-Ser-Cys-Gly (SEQ ID NO: 21) and the d-orientation peptide d-Cys-Ser-Val-Thr-Cys-Gly (SEQ ID NO: 22) were used as negative controls.
# [3] = test system: Bovine aortic endothelial cells (BAEC); test: ALAMAR BLUE cell viability assay; assay type: cell-based; conditions: TSP-1 at 20 μg/ml and 5 μg/ml
# Procedure: (§4) Bovine aortic endothelial cells (BAEC), human umbilical vein endothelial cells (HUVEC), fibroblast cells, A549 human lung carcinoma cells (A549), MDA-MB231 human breast carcinoma cells (MB231), MCF7 human breast carcinoma cells (MCF7) were treated with 37 μg/ml of receptor, or buffer alone, for 24 hours. Viability of the cells was measured using the ALAMAR BLUE™ assay, which measures the capacity of cells to metabolize the ALAMAR BLUE™ dye. The ALAMAR BLUE™ assay (available from Biosource International, Camarillo, Calif.) quantitatively measures the proliferation of cell lines and can establish the relative cytotoxicity of chemical agents. The assay incorporates a fluorometric/colorimetric growth indicator based on detection of metabolic activity. The system incorporates an oxidation-reduction (redox) indicator that both fluoresces and changes color in response to chemical reduction of growth medium resulting from cell growth. This causes the redox indicator to change from its oxidized, non-fluorescent, blue form to its reduced, fluorescent, red form. Data can be collected using either fluorescence-based instrumentation (530-560 nm excitation wavelength and 590 nm emission wavelength) or absorbance-based instrumentation (570 nm and 600 nm).
# BAEC and BSM cells were treated with increasing concentrations of angiocidin (0, 0.625, 1.25, 2.5, 5, 15, 26 and 37 μg/ml) for 24 hours. Cell viability was measured using the ALAMAR BLUE Tm assay. […] In contrast, BSM cells are unaffected.
# The methods of Example 21 were followed, except BAEC cells were used. Additionally, TSP-1 was added at both 20 μg/ml and 5 μg/ml.
# As discussed in Example 19 above, angiocidin was added to BAEC cells. Fragments of angiocidin were added as well. […] GST was used as a negative control. V36-R42, the active site of the antisecretory factor, had no effect, illustrating that angiocidin plays a different role from antisecretory factor.
# Bovine aortic endothelial cells (BAEC) were cultured overnight in serum-free media containing either 37 μg/ml his-tagged angiocidin or his-tagged GST. Both angiocidin and GST were expressed in bacteria transformed with the pTrcHisA expression vector and purified on nickel affinity chromatography under non-denaturing conditions. Viability was measured by the ALAMAR BLUE™ assay.
# This study examined the effect of anti-angiocidin antibody on angiocidin-mediated inhibition of BAEC viability. BAEC were cultured overnight in serum-free media containing either 5 μg/ml angiocidin, 5 μg/ml angiocidin plus 100 μg/ml control IgG, or 5 μg/ml angiocidin plus 100 μg/ml anti-angiocidin IgG. Viability was measured using the ALAMAR BLUE™ assay, described above.
# The endothelial cells (BAEC) were incubated overnight 37 μg/ml of the angiocidin, fragments, and GST. Viability was measured using the ALAMAR BLUE™ assay.
# [4] = test system: human umbilical vein endothelial cells (HUVEC); test: ALAMAR BLUE cell viability assay; assay type: cell-based
# Procedure: as §4
# Similarly, the effect of receptor on viability of BAEC cells was compared to mouse Lewis lung carcinoma cells, using the same method.
# The effect of angiocidin on HUVEC cell viability was evaluated, and FGF and TSP-1 were added to determine whether they ameliorated the angiocidin effect on cell viability. FGF (Fibroblast Growth Factor) is an endothelial cell mitogen, which promotes cell growth. […] TSP-1 was expected to reverse the inhibition of angiocidin; however, quantities added may have been insufficient to provide the correct molar ratio.
# TSP-1 = TSP-1 (Homo sapiens, UniProt P07996); test: Affinity Sensor System (resonant mirror biosensor): binding to TSP-1 coupled to cuvette; conditions: peptide alone, TSP-1 immobilized in cuvette
# Procedure: as §1
# 1) kass[R][TSP-1]=kdiss[R-TSP-1] at equilibrium, where kass is the second order rate constant for association and kdiss is the first order rate constant for dissociation
# 2) KD=[R][TSP-1]/[R-TSP-1]=kdiss/kass
# 3) [R-TSP-1]t=[R-TSP-1]eq[1-exp(-kont)], where the instrument response measure in arc seconds is proportional to receptor-TSP-1 complex R-TSP-1].
# 4) kon=kass[L]+kdiss where kon is the pseudo-first order rate constant for receptor TSP-1 interaction.
# as §2, §3
# receptor-TSP-1 complex [5] = test: Affinity Sensor System: peptide competition of receptor binding to immobilized TSP-1; conditions: peptide:receptor 1000 and 100 molar ratio
# Procedure: as §1, §2, §3
# B16-F10 Melanoma Cells = test: Cell adhesion to immobilized receptor peptides; assay type: cell-based, mouse; conditions: Example 12, FIG. 14
# Procedure: For the adhesion assay, in a 96 well plate, duplicate wells were covered with either TSP-1 (40 μg/ml), fibronectin (40 μg/ml), or and 1% bovine serum albumin (BSA). The wells were dried out overnight and then blocked with BSA. 100 μl of a suspension containing 2×10^5 cells were plated in the protein covered wells and incubated at 37^□ C. for 20 minutes to 1 hour. The non-adherent cells were removed and the wells were washed with a Hepes buffer. The adherent cells were fixed with 2.5% glutaraldehyde for 10 minutes and stained with 0.2% Giemsa. The stain was washed off and the cells were counted in a field of 1 mm square. Cells adhering to BSA were considered background while cells adhering to fibronectin were the positive control.
# The method of Example 12 was followed except the receptor peptides Val-Cys-His-Ser-Lys-Thr-Arg (SEQ ID NO: 8) and Val-Cys(Acm)-His-Ser-Lys-Thr-Arg (SEQ ID NO: […]) were immobilized on the plates. TSP-1 and fibronectin were also immobilized on plates, as well as negative control peptides (Ala-Ser-Val-Thr-Ala-Arg (SEQ ID NO: 11) and Pro-His-Ser-Arg-Asn (SEQ ID NO: 10)) and bovine serum albumin. […] This provides support for the theory that another protein may be associated with TSP-1 and its receptor, or that the receptor is released and rebound to the membrane of the cell by another protein.
# Sequence of TSP-1 (P07996 19-1170): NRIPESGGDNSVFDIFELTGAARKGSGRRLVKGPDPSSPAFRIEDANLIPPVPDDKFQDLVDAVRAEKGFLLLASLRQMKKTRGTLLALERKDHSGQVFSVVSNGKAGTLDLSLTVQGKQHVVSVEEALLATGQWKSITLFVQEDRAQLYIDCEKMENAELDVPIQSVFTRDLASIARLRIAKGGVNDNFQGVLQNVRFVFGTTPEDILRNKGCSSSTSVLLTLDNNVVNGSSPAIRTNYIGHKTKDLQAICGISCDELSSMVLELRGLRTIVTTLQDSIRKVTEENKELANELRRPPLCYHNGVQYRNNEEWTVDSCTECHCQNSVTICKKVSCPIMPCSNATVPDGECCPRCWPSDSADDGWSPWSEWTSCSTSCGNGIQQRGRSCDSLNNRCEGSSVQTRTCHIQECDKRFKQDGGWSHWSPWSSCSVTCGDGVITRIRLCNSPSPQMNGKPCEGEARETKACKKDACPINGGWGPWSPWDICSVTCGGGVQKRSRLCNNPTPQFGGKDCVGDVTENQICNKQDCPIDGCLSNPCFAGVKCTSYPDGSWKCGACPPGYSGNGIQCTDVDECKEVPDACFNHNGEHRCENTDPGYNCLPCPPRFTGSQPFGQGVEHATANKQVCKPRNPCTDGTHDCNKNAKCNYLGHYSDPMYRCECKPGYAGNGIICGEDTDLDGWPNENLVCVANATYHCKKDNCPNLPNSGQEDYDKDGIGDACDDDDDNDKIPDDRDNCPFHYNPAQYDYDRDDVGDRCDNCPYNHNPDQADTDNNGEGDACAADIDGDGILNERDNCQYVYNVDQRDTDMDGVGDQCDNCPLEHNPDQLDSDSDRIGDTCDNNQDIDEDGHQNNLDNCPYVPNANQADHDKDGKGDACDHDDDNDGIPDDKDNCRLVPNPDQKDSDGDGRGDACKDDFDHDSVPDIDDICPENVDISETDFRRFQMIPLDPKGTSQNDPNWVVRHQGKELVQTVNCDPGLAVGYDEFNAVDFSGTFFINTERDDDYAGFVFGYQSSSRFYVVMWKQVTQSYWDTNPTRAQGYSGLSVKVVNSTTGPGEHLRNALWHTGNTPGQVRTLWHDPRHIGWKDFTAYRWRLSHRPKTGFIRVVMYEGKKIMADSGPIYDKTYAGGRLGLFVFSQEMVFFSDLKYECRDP
Substance,"extent of receptor binding, % of buffer control (receptor-TSP-1 complex [1])",binding to the receptor (receptor),peptide competition of TSP-1 receptor binding [2],reversal of the angiocidin inhibition of viability [3],"cell growth, factor alone ([4]; FGF 2 ng/ml, TSP-1 20 μg/ml)",reversal of the angiocidin inhibition of viability ([4]; angiocidin 37 μg/ml plus FGF 2 ng/ml or TSP-1 20 μg/ml),direct binding to immobilized TSP-1 (TSP-1),inhibition of receptor binding to immobilized TSP-1 (receptor-TSP-1 complex [5]),cell adhesion to immobilized peptide (B16-F10 Melanoma Cells)
Cys(Acm)-Ser-Val-Thr-Cys(Acm)-Gly (C(Acm)SVTC(Acm)G),47%,bind to the receptor,inhibited binding,,,,,,
"TSP-1: Thrombospondin, a cell adhesive protein and matrix molecule",,bind to the receptor,,can ameliorate some of the inhibition of angiocidin,stimulated cell growth above control,neither the addition of FGF or TSP-1 reversed the inhibition of angiocidin,,,
VCHSKTR,,,,,,,bind directly to the immobilized TSP-1,inhibits binding of the receptor with the immobilized TSP-1,"cause the cells to adhere to the plates, with similar affinity to the positive controls fibronectin and TSP-1"
